Measurements from the supplement of paper PMC9170038.

Test system: MS2 coat protein
Assay: apparent KD of MS2 coat protein; designed switch direction (-1 OFF switch, 1 ON switch): 1; higher = weaker reporter binding
In short: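 Stalled E. coli RNA polymerase transcribed designed RNA switches on Illumina chips, which were then titrated with SNAP-549-labelled MS2 coat protein, doubling from 0.7 or 1.5 nM to 3 µM. Steps lasted from 0.8–1.5 h at the lowest concentration to 10–20 min at the highest. The apparent KD is each design's median over clusters of curve-fitted normalised fluorescence.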

[1] = Eterna round: R95, input ligand: FMN 200 uM
[2] = Eterna round: R95, input ligand: microRNA oligo, concentration not stated
[3] = Eterna round: R95, input ligand: none
[4] = input ligand: microRNA oligo, concentration not stated

Sequence | apparent KD of MS2 coat protein [1] [nM] | apparent KD of MS2 coat protein [2] [nM] | apparent KD of MS2 coat protein [3] [nM] | apparent KD of MS2 coat protein (input ligand: FMN 200 uM) [nM] | apparent KD of MS2 coat protein [4] [nM] | apparent KD of MS2 coat protein (input ligand: none) [nM]
GACAAGCAGGCUUUUUUCUCGUAGUGUAAACAUGAGGAUCACCCAUGUGCCCGCCCUGGAUCUUUGGAUCGCAGGAA [Onlari] (puzzle: Sensor for hsa-mir-208a) | 36.4 | 14.5 | 35.5 |  |  | 
GAGAGAGGGUGAGGAUAUUCGGUGAUAAUGAUGGGAGAAGGCACAGACAUGAGGAUCACCCAUGUGGGAAUAAUCCAGAGAGAG [Parity 12 - Jieux - Same State NG 1] (Eterna round: R96, puzzle: Same State NG 1) |  |  |  | 138 | 83 | 181
CAGCGCUGUUGAGAGGAUAUGCGGUGAUGGACAUGAGGAUCACCCAUGUUAGCGACAGCAUUACGGCAGAAGGCUUCACAGCUGC [Soteed Omei mod 17] (Eterna round: R96, puzzle: Same State 2) |  |  |  | 13.9 | 36.9 | 47.1
GCCAUCCAGUGAGGAUAUGGCACCGAAACGGUGCCAGAAGGCAUGUCAAUUGACAUGAGGAUCACCCAUGUAUUAUGGAUGGCA [Mat - Same State NG 1 - JL mod - D85] (Eterna round: R96, puzzle: Same State NG 1) |  |  |  | 102 | 694 | 695
GUUACAUGAGGAUCACCCAUGUAUGUGUGGGAGUAAGUGUCUUAGGAUAUCUAUUAUUUAAUGUAAGAGAAGGAAGAUUGUUGU [JMF's solution 24] (Eterna round: R96, puzzle: Same State NG 3) |  |  |  |  | 106 | 
AUAGUUGCCGAAGGAUAUGAUGAGGAUCACCCAUCAGAAGGUCGGCUAUUGGGUGGAUAUGAGGAUCACCCGUGUUCUUUGGUC (Eterna round: R96, puzzle: Same State NG 1) |  |  |  | 22.4 | 16.7 | 22.9
AUUAAACAUGAGGAUCACCCAUGUCAACAUAGUCGAGGAUAUGGGCAAAUAAAAUAAGAACCAGAAGGCGAAUAAU [salish99_ss1_r3_075] (puzzle: Same State 1) | 45.2 | 266 | 335 |  |  | 
UUAAUGAUGAUAGGAUAUACAUGAGGAAUUCUCGUAGAAGGAUCAUGACAUGAGGAUCACCCAUGUAUCGCUCCGUAGAGCGUA [JL SSNG1 1.14] (Eterna round: R96, puzzle: Same State NG 1) |  |  |  | 934 | 233 | 676
UGUUGUAUUACAGGAUAUCUAUGAUUGUUAUUUAGAGAAGGGUAUUCACAUGAGGAUCACCCAUGUAUAUACGAGGAAGUUGUG [JMF's solution 60] (Eterna round: R96, puzzle: Same State NG 1) |  |  |  | 52.3 | 36.7 | 50.6
GCUAGAAUUAAAGCCAACAUGAGGAUCACCCAUGUAUGUUGGCAGGAUAUCGUUUGCAAAGCAAACGAGAAGGGCCAUACUAGC [Mat - Same State NG 3 - JL Mod - D22] (Eterna round: R96, puzzle: Same State NG 3) |  |  |  | 33.4 | 87.5 | 118
AGGCUCGUGCUAGGAUAUCUAGGAUAUGGACGAGGAUUACCCGAGGAGCAUUAGCCCACCAGAGGAGAGAAGGAGCUACAUGCG [pwkr ssNG2 2F5 2FMN.12] (Eterna round: R96, puzzle: Same State NG 2) |  |  |  | 1320 | 509 | 513
UCAAUCAUGUAAGGAUAUGCAGCCGAAACGGCUGCAGAAGGUACUAUAAUUACAUGAGGAUCACCCAUGUUAUAAAAUAAAUAU [Mat - Same State NG 1 - JL mod - D80] (Eterna round: R96, puzzle: Same State NG 1) |  |  |  | 40.9 | 92.7 | 160
GGUCCAGCCUGAGCUGGACUACAGCAUGUACAUGAGGAUCACCCAUGUCAUGUACAUGUUUUUUGUUUGUCUUAAAA [Sensorship 9 - Jieux - Sensor for hsa-mir-208a] (puzzle: Sensor for hsa-mir-208a) | 69 | 70.1 | 99.4 |  |  | 
AUUAUUUAUGCAGGAUAUGAUUAACAUGAGGAUCACCCAUGUGGUGUUGUGAGUAAGGAGAGUGAUCAGAAGGGCAUUUGUUUU [JMF's solution 48] (Eterna round: R96, puzzle: Same State NG 2) |  |  |  | 386 | 321 | 402
AGAAUGCACAUGAGGAUCACCCAUGUACCCGGCUGGCAUUUGCAGGAUAUGCCGCGGCGAGCCCAGCAGAAGGGCAAGUGCUAA [Eternabot solution 4] (Eterna round: R96, puzzle: Same State NG 3) |  |  |  | 25.8 | 19 | 26.9
GUUACAUGAGGAUCACCCAUGUAUGUGUGGGAGUAAGUGUCUUAGGAUAUCUAUCAUUAAAUUUAAGAGAAGGAAGAUUGUUGU [JMF's solution 91] (Eterna round: R96, puzzle: Same State NG 3) |  |  |  | 105 | 84.7 | 121
GGUAAGAACUAAGGAUAUUGAAUACAUAUGUUUAACAUGAGGAUCACCCAUGUGGGUUGCGGUGUCGAGAAGGUAGAAUAAUAG [Mat - same State NG 2 - JL mod - D102] (Eterna round: R96, puzzle: Same State NG 2) |  |  |  | 204 | 166 | 193
CAGUGCUGUUGAGAGGAUAUGCGGCGACGGACAUGAGGAUCACCCAUGUUAGCGACAGCGUUGCGGCAGAAGGCUCUGCCCACUG [Soteed Omei mod 49] (puzzle: Same State 2) |  | 8.8 |  |  |  | 
ACAUGAGGAUCACCCAUGUAUAGAAUUGAAUGUUAAGAUACGUAGGAUAUCGAGAUUAGUAUGAUCGAGAAGGACGAUUAGAUA [JR_SSNG3_Sub064] (Eterna round: R96, puzzle: Same State NG 3) |  |  |  | 12.6 | 16.6 | 20.3
AAGCAUGAAAACAUGCAUAAAAAGUUUGUACAUGAGGAUCACCCAUGUAUGUGCAAGCUUUUUGCUCGUCUUGAAAA [JL SD Zipper 5] (Eterna round: R96, puzzle: Sensor for hsa-mir-208a) |  |  |  | 171 | 17.4 | 171
UGUUGUAUUACAGGAUAUCUAUUGUUUUGAUUUAGAGAAGGGUAUUCACAUGAGGAUCACCCAUGUAUAUACGAGGAAGUUGUG [JMF's solution 77] (Eterna round: R96, puzzle: Same State NG 1) |  |  |  | 64.1 | 40.3 | 50.6
CGUUCUUACUCAGGACGGAGAGUAGAGGAACAUGAGGAUCACCCAUGUAUGAGCUUUUUGCUCGUGAUUAACAGUAG [JR_SHM208a_Sub013] (puzzle: Sensor for hsa-mir-208a) | 62.7 | 95.4 | 122 |  |  | 
AAAGAAAACGCAGGAUAUACCCGGGAAACCGAGGUAGAAGGGUGAACCAAAACAAAACUAAAUAACAUGAGGAUCACCCAUGUC [Biarzara] (Eterna round: R96, puzzle: Same State NG 1) |  |  |  | 162 | 12.7 | 132
GAGUGACAUGAGGAUCACCCAUGUAGAAUAGAACAAGGAUAUGUGGAAGGCGGAGGAGAGACAGAAGGUGUUGGAG [JR_SS1_Sub056] (puzzle: Same State 1) | 47.9 | 51.2 | 88 |  |  | 
AUCCUACAUGAGGAUCACCCAUGUGACGCCUCGAUAGGAUAUGCGUGUGCCUUGGCGCAUGCAGAAGGAUUGUUGC [JL Aveso mod 7] (puzzle: Same State 1) | 69.2 | 17.5 | 27.1 |  |  | 
GGAGAGAGAGCGGAGGAUAUUCAAGGAGAGACAUGAGGAUCACCCAUGUAAGAGAGAGAGGAGAGGGAGAAGGCUGAGAGAGAGG [Altered State 2-11 - Jieux - Same State 2] (puzzle: Same State 2) | 25.1 | 25.9 | 27.2 |  |  | 
GUUACAUGAGGAUCACCCAUGUAUGUGUGGGAGUAAGUGUCUUAGGAUAUCUAUGAUUUAACUUAAGAGAAGGAAGAUUGUUGU [JMF's solution 81] (Eterna round: R96, puzzle: Same State NG 3) |  |  |  | 123 | 72.9 | 98.6
GCUAGAAUUAAUGCUAACAUGAGGAUCACCCAUGUAUGUUGGCAGGAUAUCGUUUGCAAAGCAAACGAGAAGGGCCAUACUAGC [Mat - Same State NG 3 - JL Mod - D25] (Eterna round: R96, puzzle: Same State NG 3) |  |  |  | 8.26 | 27.3 | 21.3
AUUGCUUACGCAGGAUAUGAUGCGAAAAUUGCGUCAGAAGGGUGAAGUGACUCGUUGCAACAAGACAUGAGGAUCACCCAUGUC [SameState NG1 #92] (Eterna round: R96, puzzle: Same State NG 1) |  |  |  | 135 | 116 | 199
GCCAUCGCAUGAGGAUAUGGCACCGUUUCGGUGCCAGAAGGCAUGUCAAUUGACAUGAGGAUCACCCAUGUAUUAUUGAUGGCA [JL Fiskers NG1ss - 33 mod 7] (Eterna round: R96, puzzle: Same State NG 1) |  |  |  | 55.6 | 448 | 860
